Results published in paper PMC4848090, “Mechanistic insight into a peptide hormone signaling complex mediating floral organ abscission” (eLife, 2016).
Non-standard residues stand in square brackets, D forms with d. No end group written: not given here. Hyp = O=C(O)[C@@H]1C[C@@H](O)CN1

T1: Arabidopsis thaliana HAESA ectodomain (residues 20–620) (Arabidopsis thaliana, UniProt P47735 20-620, N-glycans (glycoprotein of ~75 kDa))
T1 construct: HAESA, leucine-rich repeat receptor kinase, Arabidopsis thaliana, ectodomain residues 20–620; Synthetic gene, codon optimized; the vector provides an azurocidin signal peptide for secretion; also called HAESA LRR domain; HAESA LRR ectodomain; not shown: Strep, C-terminal, cleaved; 9xHis, C-terminal, cleaved
T1 sequence (looked up): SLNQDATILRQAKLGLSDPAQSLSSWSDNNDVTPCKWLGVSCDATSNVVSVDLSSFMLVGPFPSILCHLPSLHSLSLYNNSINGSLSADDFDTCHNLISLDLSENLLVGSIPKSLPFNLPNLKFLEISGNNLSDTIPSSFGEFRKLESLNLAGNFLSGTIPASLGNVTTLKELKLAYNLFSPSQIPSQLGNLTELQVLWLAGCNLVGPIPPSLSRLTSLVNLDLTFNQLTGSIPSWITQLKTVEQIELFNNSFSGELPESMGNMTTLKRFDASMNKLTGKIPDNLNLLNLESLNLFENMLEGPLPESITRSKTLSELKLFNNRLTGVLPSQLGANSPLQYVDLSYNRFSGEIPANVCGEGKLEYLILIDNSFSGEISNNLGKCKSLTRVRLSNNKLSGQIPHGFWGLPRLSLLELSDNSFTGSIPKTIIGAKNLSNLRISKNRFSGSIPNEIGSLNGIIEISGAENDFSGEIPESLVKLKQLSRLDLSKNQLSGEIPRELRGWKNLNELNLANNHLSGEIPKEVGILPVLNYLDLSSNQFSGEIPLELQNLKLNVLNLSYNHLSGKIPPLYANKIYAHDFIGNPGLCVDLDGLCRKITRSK

T2: 1:1 HAESA – SERK1 ectodomain mixture (Arabidopsis thaliana, UniProt P47735 20-620; Q94AG2 24-213, Asn115→Asp | Asn163→Gln, N-glycans)
T2 construct: HAESA, Arabidopsis thaliana, ectodomain residues 20–620; SERK1, Arabidopsis thaliana, ectodomain residues 24–213; they are the content of the ITC cell into which the peptides were titrated; also called HAESA/SERK1 protein solution; HAESA - SERK1 mixture; source: Trichoplusia ni Tnao38 cells (baculovirus), each ectodomain expressed and purified separately, then mixed 1:1; not …
T2 sequence (looked up) 1: T1 sequence (looked up)
T2 sequence (looked up) 2: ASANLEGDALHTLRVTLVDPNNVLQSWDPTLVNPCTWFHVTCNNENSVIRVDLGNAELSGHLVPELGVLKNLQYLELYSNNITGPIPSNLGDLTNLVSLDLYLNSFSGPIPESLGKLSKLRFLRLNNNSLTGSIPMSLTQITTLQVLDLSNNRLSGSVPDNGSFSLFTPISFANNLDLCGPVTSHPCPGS

T3: Arabidopsis thaliana SERK1 ectodomain (residues 24–213, Asn115→Asp and Asn163→Gln) (Arabidopsis thaliana, UniProt Q94AG2 24-213, Asn115→Asp | Asn163→Gln)
T3 sequence: T2 sequence (looked up) 2

T4: 1:1 HAESA – SERK1 ectodomain mixture (Arabidopsis thaliana, UniProt P47735 20-620; Q94AG2 24-213, Asn115→Asp | Asn163→Gln, N-glycans)
T4 sequence 1: T1 sequence (looked up)
T4 sequence 2: T2 sequence (looked up) 2

B1: synthetic IDL1 peptide LVPPSG-Hyp-SMRHN (crystal soak) (peptide)
peptide: LVPPSG[Hyp]SMRHN
notes: IDA-LIKE 1 (IDL1), Arabidopsis thaliana; Hyp written as P; source: synthetic peptide
B2: synthetic IDL1 peptide YLVPPSG-Hyp-SMRHN (ITC) (peptide)
peptide: YLVPPSG[Hyp]SMRHN
B3: SERK1: LRR ectodomain of Arabidopsis SERK1 co-receptor (residues 24–213, Asn115→Asp, Asn163→Gln), expressed in insect cells (protein)
chain: T2 sequence (looked up) 2
modifications: left off: Strep, C-terminal, cleaved | 9xHis, C-terminal, cleaved
notes: LRR ectodomain of Arabidopsis SERK1 co-receptor (residues 24–213, Asn115→Asp, Asn163→Gln), expressed in insect cells
B4: synthetic PKGV-IDA peptide YPKGVPIPPSA-Hyp-SKRHN (peptide)
peptide: YPKGVPIPPSA[Hyp]SKRHN
notes: N-terminal Tyr; INFLORESCENCE DEFICIENT IN ABSCISSION (IDA), Arabidopsis thaliana; Hyp written as P; also called N-terminally extended IDA peptide; source: synthetic peptide
B5: synthetic Lys66/Arg67 → Ala mutant IDA peptide (peptide)
peptide: YVPIPPSA[Hyp]SAAHN
notes: INFLORESCENCE DEFICIENT IN ABSCISSION (IDA), Arabidopsis thaliana; as the IDA stretch of m3 with the two changes; also called IDA K66A/R67A; IDA K66A/R66A; source: synthetic peptide
B6: Arabidopsis thaliana HAESA ectodomain (residues 20–620) (domain or fragment)
chain: T1 sequence (looked up)
modifications: N-glycans (glycoprotein of ~75 kDa)
B7: synthetic IDA peptide YVPIPPSA-Hyp-SKRHN (peptide)
peptide: YVPIPPSA[Hyp]SKRHN
notes: N-terminal Tyr residue added to allow for peptide quantification by UV absorbance; INFLORESCENCE DEFICIENT IN ABSCISSION (IDA), Arabidopsis thaliana; Hyp written as P; Used in ITC and for the HAESA-IDA-SERK1 complex that was crystallised; also called wild-type IDA; IDA wild-type; source: synthetic peptide
B8: synthetic IDA peptide PIPPSA-Hyp-SKRHN (crystal soak) (peptide)
peptide: PIPPSA[Hyp]SKRHN
notes: INFLORESCENCE DEFICIENT IN ABSCISSION (IDA), Arabidopsis thaliana, residues 58-69; Hyp written as P; also called dodecamer peptide; source: synthetic peptide

Assays:
[1] = biological target: T5, HAESA ectodomain (residues 20–620) (Arabidopsis thaliana, UniProt P47735); test: Isothermal titration calorimetry of synthetic IDA-family peptides vs. the isolated HAESA ectodomain; type: binding
T5 construct: We purified the HAESA ectodomain (residues 20–620) from baculovirus-infected insect cells; azurocidin signal peptide (N); made in house; host or cells: Trichoplusia ni Tnao38 insect cells (baculovirus, secreted)
Source text: (§1) Synthetic genes coding for the Arabidopsis thaliana HAESA (residues 20–620) and SERK1 ectodomains (residues 24–213, carrying Asn115→Asp and Asn163→Gln mutations), codon optimized for expression in Trichoplusia ni (Geneart, Germany), were cloned into a modified pBAC-6 transfer vector (Novagen, Billerica, MA), providing an azurocidin signal peptide and a C-terminal TEV (tobacco etch virus protease) cleavable Strep-9xHis tandem affinity tag. Recombinant baculoviruses were generated by co-transfecting transfer vectors with linearised baculovirus DNA (ProFold-ER1, AB vector, San Diego, CA) followed by viral amplification in Spodoptera frugiperda Sf9 cells. […] The purified HAESA ectodomain was incubated with a synthetic IDA peptide (YVPIPPSA-Hyp-SKRHN, the N-terminal Tyr residue was added to allow for peptide quantification by UV absorbance) and the SERK1 ectodomain in 1:1:1.5 molar ratio. […]
(§2) ITC experiments were performed using a Nano ITC (TA Instruments, New Castle, DE) with a 1.0 mL standard cell and a 250 μL titration syringe. […] Molar protein concentrations for SERK1 and HAESA were calculated using their molar extinction coefficient and a molecular weight of 27,551 and 74,896 Da, respectively (determined by MALDI-TOF mass spectrometry). […] Data were analyzed using the NanoAnalyze program (version 2.3.6) as provided by the manufacturer.

[2] = system: HAESA and SERK1 ectodomains; test: Analytical size-exclusion chromatography of HAESA – SERK1 ectodomain complex formation with peptide; type: binding, Arabidopsis thaliana; settings: Superdex 200 HR 10/30, 20 mM citric acid pH 5, 100 mM NaCl; peptide 25 μM; HAESA and SERK1 1:1 molar ratio; UV 280 nm
Method: Gel filtration experiments were performed using a Superdex 200 HR 10/30 column (GE Healthcare) pre-equilibrated in 20 mM citric acid (pH 5) and 100 mM NaCl. 100 μL of the isolated HAESA ectodomain (5.5 mg/mL), of the purified SERK1 LRR domain (3 mg/mL) or of mixtures of HAESA and SERK1 (either in the presence or absence of synthetic wild-type IDA, wild-type IDL1 or mutant IDA peptides at a concentration of 25 μM; 10 mg/mL; samples contained HAESA and SERK1 in 1:1 molar ratio) were loaded sequentially onto the column and elution at 0.5 mL/min was monitored by ultraviolet absorbance at 280 nm.

[3] = biological target: T1, Arabidopsis thaliana HAESA ectodomain …; test: crystal structure; apo HAESA ectodomain crystals soaked in crystallization buffer with 15 mM synthetic peptide; settings: both partners purified
[4] = biological target: B6; test: ITC
HAESA - IDA = test: Isothermal titration calorimetry of SERK1 titrated into HAESA in the presence of IDA; type: binding, Arabidopsis thaliana; settings: ITC, 25°C, pH 5.0; SERK1 (100 μM) titrated into HAESA (10 μM) in the presence of 150 μM wild-type IDA peptide
Source text: as §1, §2

HAESA ectodomain = test: Isothermal titration calorimetry of SERK1 titrated into HAESA ectodomain only; set-up: species or system Arabidopsis thaliana; settings: ITC, 25°C, pH 5.0; SERK1 (100 μM) titrated into HAESA (10 μM) in the absence of IDA; n.d. no detectable binding
Source text: as §1, §2

[5] = biological target: T2, 1:1 HAESA – SERK1 ectodomain mixture; test: ITC; 150 μM wild-type or mutant IDA peptide in the syringe, 10 μM of a 1:1 HAESA – SERK1 protein mixture in the cell; 25°C; 20 mM citric acid pH 5.0, 100 mM NaCl; settings: both partners purified
[6] = biological target: T3, Arabidopsis thaliana SERK1 ectodomain …; test: ITC; in presence of IDA
[7] = biological target: T4, 1:1 HAESA – SERK1 ectodomain mixture; test: ITC; HAESA - SERK1 mixture in cell

CC[C@H](C)[C@H](NC(=O)[C@@H]1CCCN1C(=O)[C@@H](NC(=O)[C@@H](N)Cc1ccc(O)cc1)C(C)C)C(=O)N1CCC[C@H]1C(=O)N1CCC[C@H]1C(=O)N[C@@H](CO)C(=O)N[C@@H](C)C(=O)N1C[C@H](O)C[C@H]1C(=O)N[C@@H](CO)C(=O)N[C@@H](CCCCN)C(=O)N[C@@H](CCCNC(=N)N)C(=O)N[C@@H](Cc1c[nH]cn1)C(=O)N[C@@H](CC(N)=O)C(=O)O [IDA]
Kd [1]: 20 ± 0.9 µM

IDA Hyp64P: IDA mutant peptide with Hyp64 replaced with proline (YVPIPPSAPSKRHN)
HAESA – SERK1 complex formation in size exclusion chromatography [2]: no complex formation

YPIPPSA[Hyp]SKRHNSFVN [IDA-SFVN, C-terminally extended IDA peptide]
binding to the HAESA ectodomain, in words ([1]; ITC): cannot bind

B1
binding result [3]: binds

B2
Kd [4]: 135 µM

B3
Kd of SERK1, protein in cell: HAESA - IDA (HAESA - IDA): mid-nanomolar range | Kd of SERK1, protein in cell: HAESA (HAESA ectodomain): no detectable interaction

B4
Kd [4]: 25 µM | binding result [3]: binds

B5
fold reduced binding affinity against wild-type IDA [5]: 10 fold

B6
Kd [6]: 0.075 µM

B7
Kd [7]: 0.35 µM | fold higher binding affinity than for HAESA alone [5]: ~60 fold

B8
binding result [3]: binds
